Reference: article PMC5115946 (Journal of molecular biology, 2016)

Assays:
[1] = molecular target: UBCH5B (ubiquitin-conjugating enzyme E2 D2) (human, UniProt P62837 1-147); assay: AUC
[2] = molecular target: the molecule itself; assay: AUC

B1: RING finger protein 4 (RNF4) (enzyme, human, UniProt P78317 1-190, looked up)
chain: MSTRKRRGGAINSRQAQKRTREATSTPEISLEAEPIELVETAGDEIVDLTCESLEPVVVDLTHNDSVVIVDERRRPRRNARRLPQDHADSCVVSSDDEELSRDRDVYVTTHTPRNARDEGATGLRPSGTVSCPICMDGYSEIVQNGRLIVSTECGHVFCSQCLRDSLKNANTCPTCRKKINHKRYHPIYI
**Q.** Which results are given for B1?
**A.** Kd [1]: 15 µM; stoichiometry N [2]: 2
